Read-outs that look alike come from different tables or passages of the source.
Columns and labels:
[1] = target: T1, human RXFP1 receptor (Homo sapiens, UniProt Q9HBX9); test: Intracellular cAMP accumulation assay; format: cell-based
T1 construct: expressed in transfected cells
T1 sequence (Q9HBX9 1-757): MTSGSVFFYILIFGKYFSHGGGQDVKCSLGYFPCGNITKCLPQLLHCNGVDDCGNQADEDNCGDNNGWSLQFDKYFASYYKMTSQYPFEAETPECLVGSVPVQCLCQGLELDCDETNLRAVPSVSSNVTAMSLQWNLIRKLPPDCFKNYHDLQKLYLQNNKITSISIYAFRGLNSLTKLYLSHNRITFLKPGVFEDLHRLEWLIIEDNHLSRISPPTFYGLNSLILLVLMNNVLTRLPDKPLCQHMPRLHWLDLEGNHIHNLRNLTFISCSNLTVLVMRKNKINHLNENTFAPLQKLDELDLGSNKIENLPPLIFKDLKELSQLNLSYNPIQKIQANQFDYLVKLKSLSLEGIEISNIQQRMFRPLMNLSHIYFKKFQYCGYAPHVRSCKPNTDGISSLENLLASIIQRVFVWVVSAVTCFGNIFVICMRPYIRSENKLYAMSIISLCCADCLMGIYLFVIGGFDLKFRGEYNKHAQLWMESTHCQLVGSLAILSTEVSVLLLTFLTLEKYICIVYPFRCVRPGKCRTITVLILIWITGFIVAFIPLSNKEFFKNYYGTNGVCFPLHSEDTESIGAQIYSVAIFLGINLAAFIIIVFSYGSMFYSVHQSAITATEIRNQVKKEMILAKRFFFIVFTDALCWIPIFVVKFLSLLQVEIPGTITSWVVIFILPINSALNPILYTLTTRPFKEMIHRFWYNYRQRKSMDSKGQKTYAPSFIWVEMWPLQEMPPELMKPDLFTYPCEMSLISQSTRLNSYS

[2] = In vivo pharmacokinetic (PK) studies in rats; design: species or system Sprague-Dawley rats; details: rat, male Sprague-Dawley rats, single SC dose 1.0 mg/kg, serum ELISA; for AUC(0-inf): read-out: Rat PK AUC Total; for level at time molar at 24 h: read-out: Rat PK C24
Method in brief: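 Male Sprague-Dawley rats (n=3) given a single 1 mg/kg IV or SC dose of relaxin constructs in 20 mM histidine, 750 mM NaCl, pH 6.0; jugular serum sampled to 72 h. Serum relaxin by ELISA; Cmax, AUCinf, C24 and half-life from non-compartmental analysis of individual profiles.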

[3] = CHO-K1 cells stably expressing human RXFP1, 10 min at 37° C., HTRF cAMP, average, read-out: hRXFP1/CHO-K1 cAMP EC50 (nM, avg)

## CC[C@H](C)[C@@H]1NC(=O)[C@H](C)NC(=O)[C@H]([C@@H](C)CC)NC(=O)[C@H](CCC(N)=O)NC(=O)[C@H](C)NC(=O)[C@H](CCCNC(=N)N)NC(=O)[C@H](C(C)C)NC(=O)[C@H](CC(C)C)NC(=O)[C@H](CCC(=O)O)NC(=O)[C@H](CCCNC(=N)N)NC(=O)CNC(=O)[C@@H](NC(=O)[C@H](CC(C)C)NC(=O)[C@H](CCCCN)NC(=O)[C@@H](NC(=O)[C@@H](NC(=O)[C@H](CCC(=O)O)NC(=O)[C@H](CCC(=O)O)NC(=O)[C@H](CCSC)NC(=O)[C@H](Cc2c[nH]c3ccccc23)NC(=O)[C@H](CO)NC(=O)[C@H](C)N)C(C)C)[C@@H](C)CC)CSSC[C@@H]2NC(=O)[C@@H](NC(=O)[C@H](CCCCN)NC(=O)[C@H](CC(N)=O)NC(=O)[C@H](C)NC(=O)[C@H](CC(C)C)NC(=O)[C@H](C)NC(=O)[C@H](CO)NC(=O)[C@H](Cc3ccc(O)cc3)NC(=O)[C@H](CC(C)C)NC(=O)[C@@H](N)Cc3ccc(C(C)=NOCCNC(=O)[C@H](CC(=O)O)NC(=O)[C@H](CCCNC(=N)N)NC(=O)[C@H](CC(=O)O)NC(=O)[C@H](CC(=O)O)NC(=O)[C@H](CCCNC(=N)N)NC(=O)[C@H](CC(=O)O)NC(=O)CCCCCCCCCCCCC(=O)O)cc3)CSSC[C@H](NC(=O)CNC(=O)[C@H](C(C)C)NC(=O)[C@H](Cc3c[nH]cn3)NC2=O)C(=O)N[C@@H]([C@@H](C)O)C(=O)N[C@@H](CCCCN)C(=O)N[C@@H](CCCNC(=N)N)C(=O)N[C@@H](CO)C(=O)N[C@@H](CC(C)C)C(=O)N[C@@H](C)C(=O)N[C@@H](CCCNC(=N)N)C(=O)N[C@@H](Cc2ccccc2)C(=O)N[C@H](C(=O)O)CSSC[C@@H](C(=O)NCC(=O)N[C@@H](CCSC)C(=O)N[C@@H](CO)C(=O)N[C@H](C(=O)N[C@@H](Cc2c[nH]c3ccccc23)C(=O)N[C@@H](CO)C(=O)O)[C@@H](C)O)NC1=O [AQ1-DRDDRD-C13-COOH]
[1]; [3]
  EC50: 0.32 nM
[2]
  AUC(0-inf): 1.01 µM·h
  level at time molar at 24 h: 0.38 nM

## CCCCCCCCCCCCCC(=O)N[C@@H](CCC(=O)NCC(=O)NCC(=O)NCC(=O)N[C@@H](CCC(=O)O)C(=O)N[C@@H](CCC(=O)O)C(=O)N[C@@H](CCC(=O)O)C(=O)NCCON=C(C)c1ccc(C[C@H](N)C(=O)N[C@@H](CC(C)C)C(=O)N[C@@H](Cc2ccc(O)cc2)C(=O)N[C@@H](CO)C(=O)N[C@@H](C)C(=O)N[C@@H](CC(C)C)C(=O)N[C@@H](C)C(=O)N[C@@H](CC(N)=O)C(=O)N[C@@H](CCCCN)C(=O)N[C@H]2CSSC[C@@H]3NC(=O)CNC(=O)[C@H](C(C)C)NC(=O)[C@H](Cc4c[nH]cn4)NC(=O)[C@H](CSSC[C@H](NC(=O)[C@H](CC(C)C)NC(=O)[C@H](CCCCN)NC(=O)[C@@H](NC(=O)[C@@H](NC(=O)[C@H](CCC(=O)O)NC(=O)[C@H](CCC(=O)O)NC(=O)[C@H](CCSC)NC(=O)[C@H](Cc4c[nH]c5ccccc45)NC(=O)[C@H](CO)NC(=O)[C@H](C)N)C(C)C)[C@@H](C)CC)C(=O)NCC(=O)N[C@@H](CCCNC(=N)N)C(=O)N[C@@H](CCC(=O)O)C(=O)N[C@@H](CC(C)C)C(=O)N[C@@H](C(C)C)C(=O)N[C@@H](CCCNC(=N)N)C(=O)N[C@@H](C)C(=O)N[C@@H](CCC(N)=O)C(=O)N[C@@H]([C@@H](C)CC)C(=O)N[C@@H](C)C(=O)N[C@@H]([C@@H](C)CC)C(=O)N[C@H](C(=O)NCC(=O)N[C@@H](CCSC)C(=O)N[C@@H](CO)C(=O)N[C@H](C(=O)N[C@@H](Cc4c[nH]c5ccccc45)C(=O)N[C@@H](CO)C(=O)O)[C@@H](C)O)CSSC[C@@H](C(=O)O)NC(=O)[C@H](Cc4ccccc4)NC(=O)[C@H](CCCNC(=N)N)NC(=O)[C@H](C)NC(=O)[C@H](CC(C)C)NC(=O)[C@H](CO)NC(=O)[C@H](CCCNC(=N)N)NC(=O)[C@H](CCCCN)NC(=O)[C@H]([C@@H](C)O)NC3=O)NC2=O)cc1)C(=O)O [AQ1-EEEGGG-Glu^γ-C13-CH3]
[1]; [3]
  EC50: 0.38 nM
[2]
  AUC(0-inf): 0.274 µM·h
  level at time molar at 24 h: 0.4 nM

## CC[C@H](C)[C@@H]1NC(=O)[C@H](C)NC(=O)[C@H]([C@@H](C)CC)NC(=O)[C@H](CCC(N)=O)NC(=O)[C@H](C)NC(=O)[C@H](CCCNC(=N)N)NC(=O)[C@H](C(C)C)NC(=O)[C@H](CC(C)C)NC(=O)[C@H](CCC(=O)O)NC(=O)[C@H](CCCNC(=N)N)NC(=O)CNC(=O)[C@@H](NC(=O)[C@H](CC(C)C)NC(=O)[C@H](CCCCN)NC(=O)[C@@H](NC(=O)[C@@H](NC(=O)[C@H](CCC(=O)O)NC(=O)[C@H](CCC(=O)O)NC(=O)[C@H](CCSC)NC(=O)[C@H](Cc2c[nH]c3ccccc23)NC(=O)[C@H](CO)NC(=O)[C@H](C)N)C(C)C)[C@@H](C)CC)CSSC[C@@H]2NC(=O)[C@@H](NC(=O)[C@H](CCCCN)NC(=O)[C@H](CC(N)=O)NC(=O)[C@H](C)NC(=O)[C@H](CC(C)C)NC(=O)[C@H](C)NC(=O)[C@H](CO)NC(=O)[C@H](Cc3ccc(O)cc3)NC(=O)[C@H](CC(C)C)NC(=O)[C@@H](N)Cc3ccc(C(C)=NOCCNC(=O)[C@H](CCC(=O)O)NC(=O)[C@H](CCC(=O)O)NC(=O)[C@H](CCC(=O)O)NC(=O)CNC(=O)CNC(=O)CNC(=O)CC[C@H](NC(=O)CCCCCCCCCCCCC(=O)O)C(=O)O)cc3)CSSC[C@H](NC(=O)CNC(=O)[C@H](C(C)C)NC(=O)[C@H](Cc3c[nH]cn3)NC2=O)C(=O)N[C@@H]([C@@H](C)O)C(=O)N[C@@H](CCCCN)C(=O)N[C@@H](CCCNC(=N)N)C(=O)N[C@@H](CO)C(=O)N[C@@H](CC(C)C)C(=O)N[C@@H](C)C(=O)N[C@@H](CCCNC(=N)N)C(=O)N[C@@H](Cc2ccccc2)C(=O)N[C@H](C(=O)O)CSSC[C@@H](C(=O)NCC(=O)N[C@@H](CCSC)C(=O)N[C@@H](CO)C(=O)N[C@H](C(=O)N[C@@H](Cc2c[nH]c3ccccc23)C(=O)N[C@@H](CO)C(=O)O)[C@@H](C)O)NC1=O [AQ1-EEEGGG-Glu^γ-C13-COOH]
[1]; [3]
  EC50: 0.31 nM
[2]
  AUC(0-inf): 1.38 µM·h
  level at time molar at 24 h: 0.29 nM

## CC[C@H](C)[C@@H]1NC(=O)[C@H](C)NC(=O)[C@H]([C@@H](C)CC)NC(=O)[C@H](CCC(N)=O)NC(=O)[C@H](C)NC(=O)[C@H](CCCNC(=N)N)NC(=O)[C@H](C(C)C)NC(=O)[C@H](CC(C)C)NC(=O)[C@H](CCC(=O)O)NC(=O)[C@H](CCCNC(=N)N)NC(=O)CNC(=O)[C@@H](NC(=O)[C@H](CC(C)C)NC(=O)[C@H](CCCCN)NC(=O)[C@@H](NC(=O)[C@@H](NC(=O)[C@H](CCC(=O)O)NC(=O)[C@H](CCC(=O)O)NC(=O)[C@H](CCSC)NC(=O)[C@H](Cc2c[nH]c3ccccc23)NC(=O)[C@H](CO)NC(=O)[C@H](C)N)C(C)C)[C@@H](C)CC)CSSC[C@@H]2NC(=O)[C@@H](NC(=O)[C@H](CCCCN)NC(=O)[C@H](CC(N)=O)NC(=O)[C@H](C)NC(=O)[C@H](CC(C)C)NC(=O)[C@H](C)NC(=O)[C@H](CO)NC(=O)[C@H](Cc3ccc(O)cc3)NC(=O)[C@H](CC(C)C)NC(=O)[C@@H](N)Cc3ccc(/C(C)=N/OCCNC(=O)CCC(=O)NCCCNCCCCNCCCNC(=O)CC[C@H](NC(=O)CCCCCCCCCCCCCC(=O)O)C(=O)O)cc3)CSSC[C@H](NC(=O)CNC(=O)[C@H](C(C)C)NC(=O)[C@H](Cc3c[nH]cn3)NC2=O)C(=O)N[C@@H]([C@@H](C)O)C(=O)N[C@@H](CCCCN)C(=O)N[C@@H](CCCNC(=N)N)C(=O)N[C@@H](CO)C(=O)N[C@@H](CC(C)C)C(=O)N[C@@H](C)C(=O)N[C@@H](CCCNC(=N)N)C(=O)N[C@@H](Cc2ccccc2)C(=O)N[C@H](C(=O)O)CSSC[C@@H](C(=O)NCC(=O)N[C@@H](CCSC)C(=O)N[C@@H](CO)C(=O)N[C@H](C(=O)N[C@@H](Cc2c[nH]c3ccccc23)C(=O)N[C@@H](CO)C(=O)O)[C@@H](C)O)NC1=O [AQ1-Spermine-Glu^γ-C14-COOH]
[1]
  EC50: 0.39 nM

From patent US12097241B2, “Methods of treating kidney failure, and/or improving or stablizing renal function using modified relaxin polypeptides” (BRISTOL-MYERS SQUIBB COMPANY, priority 2017, dated 2024)
